Reference: US20170002055A1, “Novel peptides and combination of peptides for use in immunotherapy against ovarian cancer and other cancers” (immatics biotechnologies GmbH, priority 2015, published 2017)

target: HLA-A*02:01 (Homo sapiens, UniProt P04439, D140Y/D185E/D98H/E176V/E277Q/G131W/G231S/I119V/I121R/I166T/I218V/L300P/L318F/N151K/N90K/P208A/P217A/Q86G/Q94H/R138H/R169H/T345S); assay: MHC binding assay (UV-ligand exchange, β2m ELISA, peptide exchange yield); conditions: MHC class I binding score; binding to HLA-A*02:01 ranged by peptide exchange yield (UV-ligand exchange, β2m ELISA)
Text: Candidate peptides for T cell based therapies according to the present invention were further tested for their MHC binding capacity (affinity). The individual peptide-MHC complexes were produced by UV-ligand exchange, where a UV-sensitive peptide is cleaved upon UV-irradiation, and exchanged with the peptide of interest as analyzed. Only peptide candidates that can effectively bind and stabilize the peptide-receptive MHC molecules prevent dissociation of the MHC complexes. To determine the yield of the exchange reaction, an ELISA was performed based on the detection of the light chain (β2m) of stabilized MHC complexes. The assay was performed as generally described in Rodenko et al. (Rodenko et al., 2006).
96 well MAXISorp plates (NUNC) were coated over night with 2 ug/ml streptavidin in PBS at room temperature, washed 4× and blocked for 1h at 37° C. in 2% BSA containing blocking buffer. […] Peptide-MHC monomers of the UV-exchange reaction were diluted 100 fold in blocking buffer. Samples were incubated for 1h at 37° C., washed four times, incubated with 2 ug/ml HRP conjugated anti-β2m for 1h at 37° C., washed again and detected with TMB solution that is stopped with […]. Absorption was measured at 450 nm. Candidate peptides that show a high exchange yield (preferably higher than 50%, most preferred higher than 75%) are generally preferred for a generation and production of antibodies or fragments thereof, and/or T cell receptors or fragments thereof, as they show sufficient avidity to the MHC molecules and prevent dissociation of the MHC complexes.

Substance | Peptide exchange
94 (YLIDIKTIAI; listed as Homo sapiens) [compound 94] | “++” (≧20% = ++)
95 (SVIPQIQKV; listed as Homo sapiens) [compound 95] | “+++” (≧50 = +++)
96 (YIFTDNPAAV; listed as Homo sapiens) [compound 96] | “+++” (≧50 = +++)
97 (SLINGSFLV; listed as Homo sapiens) [compound 97] | “+++” (≧50 = +++)
98 (LIIDQADIYL; listed as Homo sapiens) [compound 98] | “+++” (≧50 = +++)
99 (ALVSKGLATV; listed as Homo sapiens) [compound 99] | “++” (≧20% = ++)
100 (YLLSTNAQL; listed as Homo sapiens) [compound 100] | “++++” (≧75% = ++++)
101 (ILVGGGALATV; listed as Homo sapiens) [compound 101] | “+++” (≧50 = +++)
102 (YLFESEGLVL; listed as Homo sapiens) [compound 102] | “+++” (≧50 = +++)
103 (TLAEEVVAL; listed as Homo sapiens) [compound 103] | “+++” (≧50 = +++)
104 (STMEQNFLL; listed as Homo sapiens) [compound 104] | “++++” (≧75% = ++++)
106 (LLYDAVHIVSV; listed as Homo sapiens) [compound 106] | “+++” (≧50 = +++)
107 (FLQPVDDTQHL; listed as Homo sapiens) [compound 107] | “+++” (≧50 = +++)
109 (IILSILEQA; listed as Homo sapiens) [compound 109] | “++++” (≧75% = ++++)
110 (FLSQVDFEL; listed as Homo sapiens) [compound 110] | “+++” (≧50 = +++)
111 (YVWGFYPAEV; listed as Homo sapiens) [compound 111] | “+++” (≧50 = +++)
114 (SLVGEPILQNV; listed as Homo sapiens) [compound 114] | “++” (≧20% = ++)
115 (AIAGAGILYGV; listed as Homo sapiens) [compound 115] | “++” (≧20% = ++)
116 (YHIDEEVGF; listed as Homo sapiens) [compound 116] | “+” (≧10% = +)
117 (ILPDGEDFLAV; listed as Homo sapiens) [compound 117] | “+++” (≧50 = +++)
119 (FLYIGDIVSL; listed as Homo sapiens) [compound 119] | “++++” (≧75% = ++++)
120 (ALLGIPLTLV; listed as Homo sapiens) [compound 120] | “+++” (≧50 = +++)
121 (GVVDPRAISVL; listed as Homo sapiens) [compound 121] | “++” (≧20% = ++)

Substance | Peptide exchange
122 (FLLAEDDIYL; listed as Homo sapiens) [compound 122] | “+++” (≧50 = +++)
123 (NLWDLTDASVV; listed as Homo sapiens) [compound 123] | “+++” (≧50 = +++)
124 (ALYETELADA; listed as Homo sapiens) [compound 124] | “++” (≧20% = ++)
125 (VQIHQVAQV; listed as Homo sapiens) [compound 125] | “+++” (≧50 = +++)
126 (VLAYFLPEA; listed as Homo sapiens) [compound 126] | “++++” (≧75% = ++++)
127 (KIGDEPPKV; listed as Homo sapiens) [compound 127] | “++” (≧20% = ++)
128 (YLFDDPLSAV; listed as Homo sapiens) [compound 128] | “++” (≧20% = ++)
129 (GLLDGGVDILL; listed as Homo sapiens) [compound 129] | “+++” (≧50 = +++)
130 (FLWNGEDSALL; listed as Homo sapiens) [compound 130] | “+++” (≧50 = +++)
131 (FVPPVTVFPSL; listed as Homo sapiens) [compound 131] | “++” (≧20% = ++)
132 (LLVEQPPLAGV; listed as Homo sapiens) [compound 132] | “+++” (≧50 = +++)
133 (KVLSNIHTV; listed as Homo sapiens) [compound 133] | “++” (≧20% = ++)
134 (YLQELIFSV; listed as Homo sapiens) [compound 134] | “+++” (≧50 = +++)
135 (ALSEVDFQL; listed as Homo sapiens) [compound 135] | “+++” (≧50 = +++)
136 (YLADPSNLFVV; listed as Homo sapiens) [compound 136] | “+++” (≧50 = +++)
137 (TLVLTLPTV; listed as Homo sapiens) [compound 137] | “++++” (≧75% = ++++)
138 (YQYPRAILSV; listed as Homo sapiens) [compound 138] | “+++” (≧50 = +++)
139 (SVMEVNSGIYRV; listed as Homo sapiens) [compound 139] | “+++” (≧50 = +++)
140 (YMDAPKAAL; listed as Homo sapiens) [compound 140] | “++” (≧20% = ++)
142 (FLFATPVFI; listed as Homo sapiens) [compound 142] | “+++” (≧50 = +++)
144 (YIMEPSIFNTL; listed as Homo sapiens) [compound 144] | “+++” (≧50 = +++)
145 (FLATSGTLAGI; listed as Homo sapiens) [compound 145] | “++” (≧20% = ++)
146 (SLATAGDGLIEL; listed as Homo sapiens) [compound 146] | “++” (≧20% = ++)

Continued, values first:

Peptide exchange | Substance
“+++” (≧50 = +++) | 147 (SLLEAVSFL; listed as Homo sapiens) [compound 147]
“++” (≧20% = ++) | 148 (ALNPEIVSV; listed as Homo sapiens) [compound 148]
“+++” (≧50 = +++) | 149 (NLLELFVQL; listed as Homo sapiens) [compound 149]
“+++” (≧50 = +++) | 151 (KILQQLVTL; listed as Homo sapiens) [compound 151]
“+” (≧10% = +) | 153 (FLIANVLYL; listed as Homo sapiens) [compound 153]
“++” (≧20% = ++) | 154 (ALDDGTPAL; listed as Homo sapiens) [compound 154]
“+++” (≧50 = +++) | 155 (RVANLHFPSV; listed as Homo sapiens) [compound 155]
“+++” (≧50 = +++) | 158 (KLFDVDEDGYI; listed as Homo sapiens) [compound 158]
“++++” (≧75% = ++++) | 159 (GLVGNPLPSV; listed as Homo sapiens) [compound 159]
“+++” (≧50 = +++) | 160 (FLFDEEIEQI; listed as Homo sapiens) [compound 160]
“+++” (≧50 = +++) | 161 (ALLEGVNTV; listed as Homo sapiens) [compound 161]
“+++” (≧50 = +++) | 162 (YQQAQVPSV; listed as Homo sapiens) [compound 162]
“+++” (≧50 = +++) | 163 (ALDEMGDLLQL; listed as Homo sapiens) [compound 163]
“+++” (≧50 = +++) | 164 (ALLPQPKNLTV; listed as Homo sapiens) [compound 164]
“+++” (≧50 = +++) | 165 (SLLDEIRAV; listed as Homo sapiens) [compound 165]
“+++” (≧50 = +++) | 167 (KVLEVTEEFGV; listed as Homo sapiens) [compound 167]
“++++” (≧75% = ++++) | 168 (KILDADIQL; listed as Homo sapiens) [compound 168]
“+++” (≧50 = +++) | 169 (NLPEYLPFV; listed as Homo sapiens) [compound 169]
“+++” (≧50 = +++) | 170 (RLQETLSAA; listed as Homo sapiens) [compound 170]
“+++” (≧50 = +++) | 171 (LLLPLQILL; listed as Homo sapiens) [compound 171]
“++” (≧20% = ++) | 172 (VLYSYTIITV; listed as Homo sapiens) [compound 172]
“+++” (≧50 = +++) | 173 (LLDSASAGLYL; listed as Homo sapiens) [compound 173]
“+++” (≧50 = +++) | 174 (ALAQYLITA; listed as Homo sapiens) [compound 174]
“+++” (≧50 = +++) | 175 (YLFENISQL; listed as Homo sapiens) [compound 175]
“++” (≧20% = ++) | 176 (YLMEGSYNKVFL; listed as Homo sapiens) [compound 176]
